Measurements reported in paper PMC12309602, “NMR-guided identification of CYP11A1–Adrenodoxin interactions that differentially govern cholesterol and vitamin D3 metabolism” (The Journal of Biological Chemistry, 2025).
Changes are numbered by the printed parent chain.

How the values were obtained:
[1] = biological target: T1, bovine CYP11A1, wild type, mature, residues 41-520 (bovine, UniProt P00189 41-520); assay: cell-based or functional assay
T1 sequence (looked up): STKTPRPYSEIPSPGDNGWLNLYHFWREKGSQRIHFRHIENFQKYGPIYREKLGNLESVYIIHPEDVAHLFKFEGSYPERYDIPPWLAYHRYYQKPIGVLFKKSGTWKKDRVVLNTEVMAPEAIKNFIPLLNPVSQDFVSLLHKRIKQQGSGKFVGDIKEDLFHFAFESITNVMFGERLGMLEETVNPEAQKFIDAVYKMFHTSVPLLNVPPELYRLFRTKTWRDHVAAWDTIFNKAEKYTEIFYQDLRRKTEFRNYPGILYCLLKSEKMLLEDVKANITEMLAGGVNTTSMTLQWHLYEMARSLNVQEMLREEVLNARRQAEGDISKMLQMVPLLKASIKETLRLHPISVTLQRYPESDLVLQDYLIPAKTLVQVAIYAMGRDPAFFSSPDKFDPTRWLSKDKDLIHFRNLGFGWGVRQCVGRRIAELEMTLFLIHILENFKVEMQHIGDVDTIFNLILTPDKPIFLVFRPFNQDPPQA

[2] = biological target: T1, bovine CYP11A1, wild type, mature, …; assay: NMR titration; 2D 1H,15N-HSQC of 50 uM 15N-Adx with 0.25 to 1.0 equivalents of CYP11A1; 50 mM potassium phosphate, 50 mM NaCl, pH 7.2; peak intensity ratios; some samples with cholesterol or vitamin D3 in 25% HPCD added to the pre-formed complex; conditions: both partners purified

B1: bovine Adrenodoxin M77L (natural protein)
chain: SSSEDKITVHFINRDGETLTTKGKIGDSLLDVVVQNNLDIDGFGACEGTLACSTCHLIFEQHIFEKLEAITDEENDLLDLAYGLTDRSRLGCQICLTKAMDNMTVRVPDAVSDARESIDMGMNSSKIE
modifications: uniform 15N labelling in the NMR samples
[1]
  reconstituted CYP11A1 assay, side chain cleavage of cholesterol: pregnenolone produced with Adx M77L compared to WT Adx, at 45 min: 0.6 fold (decrease relative to WT Adx)
  reconstituted CYP11A1 assay: vitamin D3 depletion with Adx M77L compared to WT Adx, at 45 min: 0.7 fold (decrease relative to WT Adx)

B2: bovine Adrenodoxin M77S (natural protein)
chain: B1 chain with L77S
modifications: uniform 15N labelling in the NMR samples
[1]
  reconstituted CYP11A1 assay: vitamin D3 metabolism with Adx M77S compared to WT Adx, at 45 min: ~0.3 fold (increase relative to WT Adx)

B3: bovine Adrenodoxin, wild type (15N-labeled for NMR) (natural protein)
chain: B1 chain with L77M
modifications: uniform 15N labelling in the NMR samples
notes: Adrenodoxin (Adx), bovine; Carries a 2Fe-2S cluster; also called Adx; WT Adx; source: Ni-NTA, then size exclusion chromatography (Superdex 75)
[2]
  binding result: binds
